Test results published in US20160040149A1, “Compositions Having Dicamba Decarboxylase Activity and Methods of Use” (priority 2013, published 2016).
Numbering of substitutions follows the chain as printed.

B1: 55 (protein, listed as Serratia sp.)
chain: MAKIICLEEHTLDKALVMASMPAALEQAPFLSDWGKTVTDGNLPDRSRPQIEKNDLINIKGADIGRGRLDDMDVAGITMQVLSVGGFPHLISAAEGVDLNRAANDRLADAVNAHPDRFAAFATLPWAQPDSAEKELERAVKELGFKGALLNGRPSTHFLDHPDYDGLLARFNALGVPLYLHPGLPVRSVQQAYYGGFSDEVTARLSMFGWGWHHEAGIHLLRLILSGAFDKYPNLQVISGHWGEMLPFWLQRLDDSLPQAATGLRRTIAQTFKEQVYVTPSGMLTLPHFQFIYALLGAERIIFSVDYPYQTLDGVKAFIQSLPVPEEAKEAIAFRNAERLLGLTS
B2: 46 (protein, listed as Rhodococcus opacus)
chain: MARIITLEEHYLDPAIAAASAPLARELSPDFAAAYDPASGLSYTPSAQVLQDLGQRRIADMDTHGISMQVLSCLTTQQVPADVAPDLVRAANDTAAAAVRAHPDRFAAFAALPTTAPDAAATELARCIDDLGFVGTMINGRTDGEFLDAPRFDPILATAAARNVPIYLHPAVPPRATSDSNYAGLAPLVTARLQTSAWGWHQETAVHFLHLVLSGVLDRYPNLQFILGHWGEMIPFYLDRLDEALPQAVTNLDRTISDYVRENVYITPSGMFNQAQLQYCVETLGVDRILYSVDYPFIGNDGAVSFLDEANLPDEAKHQIAHQNTEKLLGL
B3: 57 (protein)
chain: MAKLICVEEHVLDPAVGAATQSLVRAEAPYLPDWGSRVLDGRHVADRSRPHVIAPSESARKALEMGEPRLADMDAASIDMQVLSYGGFPQLLPAAQAIDLNRAANDKLALAAQAHPARFAGFATLPWQAPEAAARELERAVKQLGLKGALINGRPGDTFLDDARYAPILAAFDELKVPLYVHPGLPLPAVQAPYYGGFERELSARLAMFAWGWHNEAGIQVVRMLLAGVFDRHPRLQLISGHWGEMVPFFLQRLEDSIPQEASGLQRPIVQTYREHVYISPSGMFTLPHFQFIHALMGAQRILYSIDYPYQSLDGARAFIERLPISDTDKALIAHRNAERLLHL
modifications: Collimonas fungivorans
B4: 48 (protein, listed as Amycolatopsis mediterranei)
chain: MASMKLYGLEEHFVTADVIEAWRRRDPGLAEPMMKWAVASDITPALLDVDGGRIAAMDDAGIDTTVLSLTTPGLQNLDAAEAVALQAPTNDLIAAAVRRHPGRFQGFATLATSAPAAAADELRRAVTELGLNGALVNANSRGRALDAPGFWDIYEAAEDLRAPVYLHPGVPVPAVTEAYYRGFGEPVNSMLATGAFGWHYDAGLTILRMIVAGVFDRFPGLQVILGHWGEVVLFYLDRVAAMDKLTALRRPIAEYFRSNIFITPGGISSHKYLRWSLETVGVERIMYASDYPFNTERAGSARRFLDTAPVDEAGRERIAYRNWEELIAGIRR
B5: 43 (protein, listed as Rhizobium leguminosarum)
chain: MAQGKIALEEHFAIPETLQDSAGFVPGDYWTELSARLLDIQDKRLRLMDTHGIEKMILSLNAPAVQAIPDKAKAVEISRRANDFLAEQCVKNPNRFLGFAALPLQDPDAATQELQRCVTTMGFVGALVNGFSQEGDGTTPLYYDLPQYRPFWAEVEKLDVPFYLHPRNPLPQDSRIYAGHSWLMGPTWAFAQETAVHALRLMGSGLFDEHPALRIIVGHMGEGLPYMMWRIDNRNAWVKVEKSYPAKRPIADYFNENFYITTSGNFRTQSLIDAMLEIGADRILFSADWPFENVDHAANWFDSATISEADRLKIGRTNAVSLFKLDR
B6: 44 (protein, listed as Mycobacterium avium)
chain: MARIITVEEHFQHPEVSARVAELTGPAVEGLAEFGNAFSLDPDSTARLGGNRLAHMDQVGIDVQVVSHGNGSPGTLQHPEAVELCRRVNNDLAAQIAENPDRFRGFATLPLYDPAAAAEELRRCVGDLGFVGALIAGSYDGLFLDDERFDPILTAAEAVDFPIYVHPGLPEAPVSQRYYAGSWPASVHMMFSGPAFGWHAEAGIHIVRLILSGALDRHPTLKLLSGHWGELAAFYLERLDETLGLLPTGLERAPSDYYRQQVWITPSGMYNQNQLNFMTAELGAQRIIYSEDFPYVVRDNVSTFLEQAGLSEADTHAIAHTNAEALLRI
B7: 45 (protein)
chain: MANDDLAEVIAAHPDRFAGFAALPMRDPQAAAVELQRAVGTHGFCGAMINGLIEGRFLDDPAFAPLLSTAADLGVPLYLHPSFPPPQVAEIYFGGLAPVLGDLLATAGWGWHAETALHVLRLVATGVFDRLPELWVIVGHMGEMIPFALARIDTVLSPVAQLRQPVAQYFQTNVWFTTSGYTTFPPLQCALSTVGIDRLIFSVDYPYTDNTSARALLDTAPISPVDREKLAHGTVEALLRV
modifications: Mycobacterium sp
B8: 42 (protein)
chain: MAQGKIALEEHFAIPDTLQDSAGFVPGDYWKELSARLLDIHEQRLMQMDAYGIEKMILSLNAPAVQAIPDKAKALEISRRANDFLAEQCARNPDRFLGFAALPLQDPDAATAELQRCVKTLGFVGALVNGFSQEGDGVTPLYYDLPQYRGFWAEVEKLAVPFYLHPRNPLPQDSRIYAGHPWLMGPTWAFAQETAVHALRLVGSGLFDDHPALRIILGHMGEGLPYMMWRIDNRNAWVKVAPNYPAKRRIADYFNENFYITTSGNFRTQSLVDAMLEIGADRILFSTDWPFENIDHASDWFDTATISEADRLKIGRTNAATLFNLES
modifications: Agrobacterium radiobacter
B9: 49 (protein, listed as Streptomyces sp.)
chain: MAKIIALEEHFSDPAVAKAGAARARALSPGFAASYSPASGLPYSPSPEVLENLAEKRLADMDAGGITMQVLSGLGAQTVPADVAPALVAGSNDKAAAAVRAHPDRFAAFAALPTATPEAAVAELDRSVNELGFVGTLIMGRTEGEFLDAPRFEPILARAAALKVPVFLHPGVPPREITDSNYAAGLPTGIGTRLQTAAWGWHQETAVHFLHLVHSGVLDRYPDLQFILGHWGEMIPFYLDRVDEALPQRATGLDRSFHEYFRENVYLAPSGMWSQAQLRFCLETVPLERIVFAVDYPFIGNEGAVPFLEKAELPQADKRKIAHENAERLLGL
B10: 52 (protein, listed as Streptomyces sp.)
chain: B9 chain with R25Q, G75S, T116A, M234T, V285F, Q315E
B11: 54 (protein, listed as Streptomyces sp.)
chain: B9 chain with R25Q, T116A, V128I, D223G, Q315E
B12: 53 (protein, listed as Granulicella tundricola)
chain: MARTITLEEHFVTDSFLRATGAYDKPAPPWLAQLQPKLLDLGDGRIAAMDEAGIDLQVLSLAALGFDALDAATATPLVHDINDELAAAVRANPTRLAAFASLALKDPQSAARELERAIQKLGFRGVLLDGTTDGLFLDDPRFTPVFEAAVALNVPIYLHPAPPPESVFDTYFTGLPEGVGQMLSIAGWGWHAETALHTLRLITNGVFDRYPTLQLIIGHMGEMLPMALARTSKALSHAARLRQPVAAYFQSNIHLTTSGYFTQPPLRCALDVVGIDRLMFSIDYPFSANTLGRDYLTELEQTLTPEDLAKLIHRNAESLLNLS
B13: 56 (protein)
chain: MAKIICLEEHYLDSELGRACMPVALEQAPFLGDWGKTVADGHNPDRSRPQIEKNALINAKGADLGSRRLRDMDEAGITLQILSVGGFPQLAPEDEAVTLNTAANDRLAEAVRNHPDRFAAFATLPWAQPKDAENELVRAVEKLGFKGALLNGRPSSCFLDHPDYDSLLSRFNKLNVPLYLHPGLPLKSVQQAYFTGFSAEVNARLSMFGWGWHHEAGIHLLRLMLSGAFDKYPNMQVISGHWGEMLPFWLQRLDDSLPLAATGLSRTLTRTFQEHVYVTPSGMLTLPHFKFIYELMGAERILFSVDYPYQTLDGVKTFIDSLPVNKAEKEAIAFRNAERLLGITA
modifications: Enterobacter aerogenes
B14: 47 (protein, listed as Serratia odorifera)
chain: MAKIICLEEHTLDKALVMASMPAALAQAPFLSDWGKTITDGNLPDRSRPQIEKNDLINVKGADIGRGRLDDMDEAGITMQVLSVGGFPHLISAAEGVDLNRAANDRLANAVNAHPDRFAAFATLPWAQPDAAEKELERAVKELGFKGALLNGRPSIHFLDHPDYDGLLARFNALGVPLYLHPGLPVRSVQQAYYSGFSDEVTARLSMFGWGWHHEAGIHLLRLILSGAFDKYPNLQVISGHWGEMLPFWLQRLDDSLPQAATGLRRTITQTFREQVYVTPSGMLTLPHFQFIYALLGAERILFSVDYPYQTLDGVKAFIQSLPVPEEAKEAIAFRNAERLFGLTS
B15: 50 (protein, listed as Streptomyces sp.)
chain: MARIVTLEEHWTDPAVTAAGMPNLLDHVPGYAAAFDPDTGMPYPRHPELLEDLGAARIADMDRHGITTQVLSLVNTFLPADVAPRLTAAANDAMAAAVEAFPGRFAAFATLPTAVPGAAADELRRCVGELGFVGTMIMGRTDGEFLDQPRFDPILRAASDLSVPVYLHPAPPPVAVSEASYAGGLSPAVSAAFRLAAWGWHQETAVHLLHLVLAGVLDRYPGLQFVLGHWGEFIPFYLDRLDESMPRRMTGLDRTFREYFRDNVFITPSGMFSQAQLRYCADTVGTDRIIHSVDFPMLGNEGAVSFLTDSHLSREDQEKIAHGNADALLGLG
B16: 51 (protein, listed as Mycobacterium gilvum)
chain: MARVIAIEEHYAHPGLQPAEALANLRKHPQLARIQDKLEDLGAGRLADMDAAGIDMQVLSHTVPGAEALPAAQAVDVVRQTNDDLAEVIAAHPDRFAGFAALPMRDPQAAATELQRAVGTLGFCGAMINGLIEGRFLDHPDFTPLLSTAADLGVPLYLHPSFPPPQVAQIYFGGLPPVLADLLATAGWGWHAETALHVLRLISTGVFDRLPELRVIVGHMGEMIPFALARIDTVLSPMTELRQPVAQYFQTNVWFTTSGYTTFPPLQCALSTVGIDRLIFSVDYPYTDNASARALLDTAPISPVDREKLAHATVEALLRV

experiment: Saturation mutagenesis of SEQ ID NO:109: dicamba decarboxylation activity of point mutants (CO2 released), fold of backbone (Tables 7, 8, Megatable 1); settings: decarboxylation activity (CO2 released) of point mutant vs unmutated backbone protein; backbone SEQ ID NO: 109

Row | Molecule | Fold Activity
1 | B1 | 1.5 fold
2 | B2 | 1.1 fold
3 | B3 | 2 fold
4 | B4 | 1.5 fold
5 | B5 | 1 fold
6 | B6 | 0.7 fold
7 | B7 | 1.7 fold
8 | B8 | 1.7 fold
9 | B9 | 2 fold
10 | B10 | 1.9 fold
11 | B11 | 1.4 fold
12 | B12 | 1.6 fold
13 | B13 | 1.3 fold
14 | B14 | 1.2 fold
15 | B15 | 1.7 fold
16 | B16 | 1.7 fold
